The record followed here is publication PMC9880977 (Computational and Structural Biotechnology Journal, 2023).

In one series the test system is COc1cccc(OC)c1O. In words: purified protein. The class given is biochemical, Heterobasidion irregulare. To be noted: 100 mM citrate-phosphate pH 5, air O2.
The test system of the next series is COc1ccccc1O. In words: purified protein. The class given is biochemical, Heterobasidion irregulare. As to conditions: 100 mM citrate-phosphate pH 5, air O2.
Series [1] deals with CCn1c(=NN=c2sc3cc(S(=O)(=O)O)ccc3n2CC)sc2cc(S(=O)(=O)O)ccc21. In words: purified protein. To be noted: 100 mM citrate-phosphate pH 4, air O2.
In series [2] the target is T1, HaLF (Heterobasidion irregulare, UniProt W4KBR7).
T1 sequence (W4KBR7 21-648): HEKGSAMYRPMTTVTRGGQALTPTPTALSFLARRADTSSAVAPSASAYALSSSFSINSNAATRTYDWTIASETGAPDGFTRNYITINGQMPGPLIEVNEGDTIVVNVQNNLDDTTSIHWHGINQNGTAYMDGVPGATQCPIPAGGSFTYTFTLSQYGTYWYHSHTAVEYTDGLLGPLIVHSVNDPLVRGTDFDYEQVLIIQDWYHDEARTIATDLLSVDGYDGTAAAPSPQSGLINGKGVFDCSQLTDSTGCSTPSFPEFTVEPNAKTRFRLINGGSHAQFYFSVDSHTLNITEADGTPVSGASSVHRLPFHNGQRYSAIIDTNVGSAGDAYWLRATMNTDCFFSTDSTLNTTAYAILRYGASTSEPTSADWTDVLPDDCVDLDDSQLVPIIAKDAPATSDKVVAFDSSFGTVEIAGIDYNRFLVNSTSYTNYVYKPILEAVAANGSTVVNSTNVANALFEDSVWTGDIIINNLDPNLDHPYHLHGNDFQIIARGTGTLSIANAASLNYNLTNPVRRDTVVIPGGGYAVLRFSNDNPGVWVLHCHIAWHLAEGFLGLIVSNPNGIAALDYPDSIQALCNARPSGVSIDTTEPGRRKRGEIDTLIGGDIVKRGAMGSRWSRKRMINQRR
In words: spectrophotometric oxidation at […] nm, hyperbola or Hill fit. The format is biochemical. As to conditions: read-out: HaLF / KM; 100 mM citrate-phosphate pH 4; air O2.

Series [3] concerns the target T2, HaLF (Heterobasidion irregulare, UniProt W4KBR7, A247E/F364D).
T2 sequence (W4KBR7 21-648 A247E/F364D): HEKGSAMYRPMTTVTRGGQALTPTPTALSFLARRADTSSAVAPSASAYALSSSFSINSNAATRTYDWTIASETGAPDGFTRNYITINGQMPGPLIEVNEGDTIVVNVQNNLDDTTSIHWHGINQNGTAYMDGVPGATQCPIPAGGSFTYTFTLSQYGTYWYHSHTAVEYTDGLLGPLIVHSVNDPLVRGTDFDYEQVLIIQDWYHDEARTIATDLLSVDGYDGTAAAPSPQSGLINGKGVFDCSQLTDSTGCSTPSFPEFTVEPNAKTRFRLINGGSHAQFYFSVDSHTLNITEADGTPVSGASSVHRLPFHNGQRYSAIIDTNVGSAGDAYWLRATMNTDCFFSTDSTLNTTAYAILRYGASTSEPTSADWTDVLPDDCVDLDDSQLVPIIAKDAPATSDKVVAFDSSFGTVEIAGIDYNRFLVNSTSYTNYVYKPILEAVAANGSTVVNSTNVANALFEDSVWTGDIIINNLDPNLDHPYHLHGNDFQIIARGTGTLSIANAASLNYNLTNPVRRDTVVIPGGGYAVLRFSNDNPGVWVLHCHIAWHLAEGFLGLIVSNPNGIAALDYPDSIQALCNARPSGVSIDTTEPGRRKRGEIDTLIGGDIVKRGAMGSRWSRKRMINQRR
Described as above. The class given is biochemical. To be noted: read-out: HaLFA227E, F344D / KM; 100 mM citrate-phosphate pH 4; air O2.

Substrate in series [4]: COc1cccc(OC)c1O
In words: purified protein. The format is biochemical, Heterobasidion irregulare. To be noted: 100 mM citrate-phosphate pH 5, air O2. The source holds these as a separate data set.

Substrate in series [5]: COc1ccccc1O
The series is described as follows: purified protein. The format is biochemical, Heterobasidion irregulare. As to conditions: 100 mM citrate-phosphate pH 5, air O2. The source holds these as a separate data set.

Substrate in series [6]: CCn1c(=NN=c2sc3cc(S(=O)(=O)O)ccc3n2CC)sc2cc(S(=O)(=O)O)ccc21
In words: purified protein. As to conditions: 100 mM citrate-phosphate pH 4, air O2. The source holds these as a separate data set.

Substrate in series [7]: Nc1ccccc1N
The series is described as follows: purified protein. As to conditions: 100 mM citrate-phosphate pH 4, air O2.

Take “HaLF (Heterobasidion irregulare TC 32-1; A247E/F364D)”: the Km worked out at 3.8 ± 0.3 mM in the series with COc1cccc(OC)c1O, 31 ± 4 mM with COc1ccccc1O and 11 ± 1.5 mM in series [1]. In addition, the figures for the kcat (in the series on COc1cccc(OC)c1O; in the series with COc1ccccc1O; in series [1]) were 0.87 ± 0.03 s⁻¹, 0.3 ± 0.02 s⁻¹ and 16 ± 1 s⁻¹, respectively.

As for `CN(C)c1ccc(N)cc1` [DMPD, N,N-Dimethyl-1,4-phenylenediamine], the Km came to 8 ± 0.4 mM on HaLF [2] and 9 ± 0.8 mM on HaLF [3].

B1: HaLF (Heterobasidion irregulare TC 32-1) (protein)
chain: HEKGSAMYRPMTTVTRGGQALTPTPTALSFLARRADTSSAVAPSASAYALSSSFSINSNAATRTYDWTIASETGAPDGFTRNYITINGQMPGPLIEVNEGDTIVVNVQNNLDDTTSIHWHGINQNGTAYMDGVPGATQCPIPAGGSFTYTFTLSQYGTYWYHSHTAVEYTDGLLGPLIVHSVNDPLVRGTDFDYEQVLIIQDWYHDEARTIATDLLSVDGYDGTAAAPSPQSGLINGKGVFDCSQLTDSTGCSTPSFPEFTVEPNAKTRFRLINGGSHAQFYFSVDSHTLNITEADGTPVSGASSVHRLPFHNGQRYSAIIDTNVGSAGDAYWLRATMNTDCFFSTDSTLNTTAYAILRYGASTSEPTSADWTDVLPDDCVDLDDSQLVPIIAKDAPATSDKVVAFDSSFGTVEIAGIDYNRFLVNSTSYTNYVYKPILEAVAANGSTVVNSTNVANALFEDSVWTGDIIINNLDPNLDHPYHLHGNDFQIIARGTGTLSIANAASLNYNLTNPVRRDTVVIPGGGYAVLRFSNDNPGVWVLHCHIAWHLAEGFLGLIVSNPNGIAALDYPDSIQALCNARPSGVSIDTTEPGRRKRGEIDTLIGGDIVKRGAMGSRWSRKRMINQRR
In the case of B1, the Km is given as 0.5 ± 0.05 mM in “purified protein [4]”, 20 ± 5 mM in the series “purified protein [5]”, 4 ± 0.6 mM in the series “purified protein [6]” and 1.6 ± 0.3 mM in “purified protein [7]”. In addition, the kcat (as a rule, the number of substrate molecules converted per active site and unit of time at saturation) in the series “purified protein [4]” came to 122 ± 4 s⁻¹; in “purified protein [5]” it was 3.7 ± 0.4 s⁻¹; in “purified protein [6]”, 428 ± 14 s⁻¹; in the series “purified protein [7]” it was 26 ± 2 s⁻¹.
